Data reported in patent publication US7087420B1, “Microbial β-glucuronidase genes, gene products and uses thereof” (Cambia, priority 1997, dated 2006).

Substrate: O=C(O)[C@H]1O[C@@H](Oc2ccc([N+](=O)[O-])cc2)[C@H](O)[C@@H](O)[C@@H]1O
Experiment: Kinetics of pNPG hydrolysis by E. coli GUS (spectrophotometric p-nitrophenol release)
Format: biochemical, Escherichia coli
Conditions: other: E. coli GUS, substrate pNPG, 37° C., pH 7.0
Method: One such substrate is p-nitrophenyl β-D-glucuronide (pNPG), which when cleaved by GUS releases the chromophore p-nitrophenol. At a pH greater than its pKa (approximately 7.15), the ionized chromophore absorbs light at 400–420 nm, therefore appears in the yellow range of visible light. Briefly, reactions are performed in 50 mM Na3PO4 pH 7.0, 10 mM 2-ME, 1 mM EDTA, 1 mM pNPG, and 0.1% Triton® X-100 at 37° C. The reactions are terminated by the addition of 0.4 ml of 2-amino-2-methylpropanediol, and absorbance measured at 415 nm against a substrate blank. Under these conditions, the molar extinction coefficient of p-nitrophenol is assumed to be 14,000: One unit is defined as the amount of enzyme that produces 1 nmole of product/min at 37° C.
Turnover number is calculated as nmoles of pNPG converted to p-nitrophenol per min per μg of purified protein.

B1: E. coli β-glucuronidase (E. coli GUS, GUS^Eco), wild type, SEQ ID NO: 23 (Escherichia coli K-12) (protein)
chain: MLRPVETPTREIKKLDGLWAFSLDRENCGIDQRWWESALQESRAIAVPGSFNDQFADADIRNYAGNVWYQREVFIPKGWAGQRIVLRFDAVTHYGKVWVNNQEVMEHQGGYTPFEADVTPYVIAGKSVRITVCVNNELNWQTIPPGMVITDENGKKKQSYFHDFFNYAGIHRSVMLYTTPNTWVDDITVVTHVAQDCNHASVDWQVVANGDVSVELRDADQQVVATGQGTSGTLQVVNPHLWQPGEGYLYELCVTAKSQTECDIYPLRVGIRSVAVKGEQFLINHKPFYFTGFGRHEDADLRGKGFDNVLMVHDHALMDWIGANSYRTSHYPYAEEMLDWADEHGIVVIDETAAVGFNLSLGIGFEAGNKPKELYSEEAVNGETQQAHLQAIKELIARDKNHPSVVMWSIANEPDTRPQGAREYFAPLAEATRKLDPTRPITCVNVMFCDAHTDTISDLFDVLCLNRYYGWYVQSGDLETAEKVLEKELLAWQEKLHQPIIITEYGVDTLAGLHSMYTDMWSEEYQCAWLDMYHRVFDRVSAVVGEQVWNFADFATSQGILRVGGNKKGIFTRDRKPKSAAFLLQKRWTGMNFGEKPQQGGKQ
notes: pNPG substrate; functional homotetramer
With B1 the Km was 120 μM pNPG μM and the Vmax was 80 nmol/min/µg.
